{"source": "paper PMC8828441", "target": "ADDomer-SpyTag (human adenovirus type 3)", "test": "covalent SpyTag/SpyCatcher adduct on SDS-PAGE", "data": [{"substance": "SpyCatcher", "values": [{"measurement": "stoichiometry N (copies per particle)", "result": 60}]}]}
